Experimental data taken from US20050064420A1, “Methods for identifying, isolating, and controlling the growth of estrogen-responsive cells” (Dana-Farber Cancer Institute, Inc., priority 2001, published 2005).

What was measured:
[1] = system: estrogen receptor expressing human breast cancer cell lines; assay type: cell-based
Procedure: Profiles for untreated (filled) and estrogen treated cells (unfilled) infected with the Ad-25ERE-GFP adenovirus are shown.
To assay estrogen responsiveness, cells were cultured in estrogen-free medium (phenol red-free RPMI1640 or DMEM/F12 medium (Life Technologies, Rockville, Md.) supplemented with charcoal/dextran treated fetal bovine serum (cd FBS; 5%) (Hyclone, Logan, Utah)) for 7 days. The cells were tested in fresh estrogen-free medium or fresh estrogen-free medium supplemented with 10 nM estradiol or 10 μM 4-hydroxy-tamoxifen. Cells were collected after 16-24 hours of hormone treatment.
For fluorescence microscopy analysis breast cancer cell lines were infected with Ad-25ERE-GFP virus at a MOI (multiplicity of infection) of ˜100 and treated with hormones as described above.
By infecting mammary epithelial cells with the Ad-25ERE-GFP adenovirus, it was possible to isolate ER+ estrogen responsive cells based on GFP expression. […] Ad-25ERE-GFP was then used to infect various estrogen receptor expressing human breast cancer cell lines in the presence of estrogen or tamoxifen or in the absence of hormone (FIG. 1B).

[2] = system: ER+ breast cancer cell lines (MCF-7 and T47D); assay: Colony assay after transfection with lipocalin 2 expression vector (pCEP4-lipocalin-HA), hygromycin selection; assay type: cell-based, human; settings: lipocalin 2 expression vs control vector pCEP4; 2 weeks hygromycin selection; crystal violet staining
Excerpt: (§1) FIG. 3D is a bar graph showing the numbers of colonies that were obtained after drug (hygromycin) selection (for 2 weeks) of estrogen receptor (“ER”) expressing (“Positive”) MCF-7 and T47D breast cancer cells, estrogen receptor non-expressing (“Negative”) BT549 and MTA-MB-435S breast cancer cells, and estrogen receptor non-expressing (“Negative”) MCF10A normal immortalized mammary epithelial cells that had all been transfected with either a control expression vector (“CEP”) or an expression vector containing cDNA encoding human lipocalin 2 fused at its C-terminus to a double hemagglutinin tag (“LIPO”). The experiments were carried out in T25 tissue culture flasks and the data are expressed as the number of “Colonies/T25 flask”.
(§2) cDNA encoding human lipocalin 2 was amplified by PCR and the isolated PCR product was cloned into the pCEP4 (Invitrogen, Carlsbad, Calif.). The resulting vector (pCEP4-lipocalin-HA) expresses lipocalin-2 with a double hemaglutinnin (HA) tag at its C-terminus. For colony assays, cells were transfected with pCEP4 (control) or pCEP4-lipocalin-HA using FuGene6 (Roche, Indianapolis, Ind.). Transfectants were selected in hygromycin-containing medium for 2 weeks after which colonies were visualized by crystal violet staining. Expression of the lipocalin 2-HA fusion protein was confirmed by western blot analysis (using an antibody specific for HA (Covance, Richmond, Calif.)) of cell lysate and medium from T47D cells transfected with pCEP4 or pCEP4-lipocalin-HA constructs.
(§3) Lipocalin 2 is a secreted protein and could thus be a paracrine factor expressed by NER+ cells that affects the surrounding mammary epithelial cells. In order to determine the effect of lipocalin 2 expression on mammary cell growth, colony growth assays were performed in various ER− and ER+ breast cancer cell lines and in MCF10A cells (FIG. 3D). […] In MCF10A immortalized ER− normal mammary epithelial cells a small increase in the number of colonies (18 vs. 7 colonies) was also observed following lipocalin 2 transfection (FIG. 3D). […]

[3] = system: ER- breast cancer cell line BT549; assay: as above; assay type: cell-based, human; settings: lipocalin 2 expression vs control vector pCEP4, 2 weeks hygromycin selection
Excerpt: as §1, §2, §3

[4] = system: MCF10A immortalized ER- normal mammary epithelial cells; assay: as above; assay type: cell-based, human; settings: following lipocalin 2 transfection (control vector: 7 colonies), T25 flask
Excerpt: as §1, §2, §3

MCF10A cells = assay: Colony assay with lipocalin 2 conditioned medium; assay type: cell-based, human; settings: conditioned medium from cells expressing lipocalin 2 vs GFP, seven days of culture
Procedure: (§4) FIG. 4 is a bar graph showing the number of colonies that were obtained after culturing estrogen receptor expressing 747D breast cancer cells and estrogen receptor non-expressing MCF10A normal immortalized mammary epithelial cells with conditioned medium from […] cells recombinantly expressing either GFP (“GEP”) or lipocalin 2 (“LIPO”). The experiments were carried out in the wells of 6-well tissue culture plates. Data, which are expressed as “Colonies/well”, from experiments carried out in medium supplemented with 5% fetal bovine serum (“5% FBS”) or 0.2% fetal bovine serum (“0.2% FBS”) are shown.
(§5) For experiments to test for cell growth regulatory activity in secreted lipocalin 2, conditioned medium was generated by infecting COS7 cells with replication-defective adenoviruses expressing either GFP or lipocalin 2. Filtered medium collected 3-4 days after infection was applied to T47 or MCF10A cells. Colonies were visualized by crystal violet staining after seven days of culture.
(§6) Lipocalin 2 is a secreted protein and could thus be a paracrine factor expressed by NER+ cells that affects the surrounding mammary epithelial cells. In order to determine the effect of lipocalin 2 expression on mammary cell growth, colony growth assays were performed in various ER− and ER+ breast cancer cell lines and in MCF10A cells (FIG. 3D). […]

T47D cells = assay: Colony assay with lipocalin 2 conditioned medium; assay type: cell-based, human; settings: conditioned medium from cells expressing lipocalin 2 vs GFP, seven days of culture
Procedure: as §4, §5, §6

Molecule	GFP expression [1]	colony numbers [2]	colony numbers [3]	number of colonies [4] [colonies]	growth (colonies) with exogenous lipocalin 2 (MCF10A cells)	growth (colonies) with exogenous lipocalin 2 (T47D cells)
C[C@]12CC[C@@H]3c4ccc(O)cc4CC[C@H]3[C@@H]1CC[C@@H]2O [estrogen, estradiol]	high GFP expression					
lipocalin 2: Secreted human protein; expressed from pCEP4-lipocalin-HA with C-terminal double hemagglutinin tag, or supplied in conditioned medium (protein, UniProt P80188 21-198, looked up, C-terminal double HA tag, Secreted human protein; expressed from pCEP4-lipocalin-HA with C-terminal double hemagglutinin tag, or supplied in conditioned medium) Neutrophil …: QDSTSDLIPAPPLSKVPLQQNFQDNQFQGKWYVVGLAGNAILREDKDPQKMYATIYELKEDKSYNVTSVLFRKKKCDYWIRTFVPGCQPGEFTLGNIKSYPGLTSYLVRVVSTNYNQHAMVFFKKVSQNREYFKITLYGRTKELTSELKENFIRFSKSLGLPENHIVFPVPIDQCIDG		dramatically suppressed colony numbers	small but significant increase in colony numbers	18	enhanced	inhibited
